Experimental data published in patent US20250172568A1 (TRUSTEES OF DARTMOUTH COLLEGE, published 2025).

B1: afucosylated BB7.2 IgG1 (HLA-A2-specific chimeric mAb) (antibody)
heavy: not shown
light: DVLMTQTPLSLPVSLGDQVSISCRSSQSIVHSNGNTYLEWYLQKPGQSPKLLIYKVSNRFSGVPDRFSGSGSGTDFTLKISRVEAEDLGVYYCFQGSHVPRTFGGGTKLEIKRADAAPTVSIFPPSSEQLTSGGASVVCFLNNFYPKDINVKWKIDGSERQNGVLNSWTDQDSKDSTYSMSSTLTLTKDEYERHNSYTCEATHKTSTSPIVKSFNRNEC
notes: also called afucosylated IgG1; afucosylated HLA-A2 mAb
B2: afucosylated BB7.2 IgG3 (HLA-A2-specific chimeric mAb) (antibody)
heavy: QVQLQQSGPELVKPGASVKMSCKASGYTFTSYHIQWVKQRPGQGLEWIGWIYPGDGSTQYNEKFKGKTTLTADKSSSTAYMLLSSLTSEDSAIYFCAREGTYYAMDYWGQGTSVTVSSAKTTPPSVYPLAPGCGDTTGSSVTLGCLVKGYFPESVTVTWNSGSLSSSVHTFPALLQSGLYTMSSSVTVPSSTWPSQTVTCSVAHPASSTTVDKKLELKTPLGDTTHTCPRCPEPKSCDTPPPCPRCPEPKSCDTPPPCPRCPEPKSCDTPPPCPRCPAPELLGGPSVFLFPPKPKDTLMISRTPEVTCVVVDVSHEDPEVQFKWYVDGVEVHNAKTKPREEQYNSTFRVVSVLTVLHQDWLNGKEYKCKVSNKALPAPIEKTISKTKGQPREPQVYTLPPSREEMTKNQVSLTCLVKGFYPSDIAVEWESSGQPENNYNTTPPMLDSDGSFFLYSKLTVDKSRWQQGNIFSCSVMHEALHNRFTQKSLSLSPGK
light: B1 light
notes: also called afucosylated IgG3; afucosylated HLA-A2 mAb
B3: BB7.2 IgG1 (HLA-A2-specific chimeric mAb, unmodified / fucosylated) (antibody)
heavy: not shown
light: B1 light
notes: also called HLA-A2 IgG1 mAb; unmodified HLA-A2 mAb
B4: BB7.2 IgG3 (HLA-A2-specific chimeric mAb, unmodified / fucosylated) (antibody)
heavy: B2 heavy
light: B1 light
notes: also called HLA-A2 IgG3 mAb; unmodified HLA-A2 mAb

Assays:
FcγRI = target: T1, FcγRI (human, UniProt P12314 16-288); assay: BLI (Octet), mAb on HLA-A2 antigen tips, 292 nM FcγRI in solution
T1 construct: also called human FcγRI
Method: High Precision Streptavidin 2.0 (SAX2) biosensor tips (Sartorius) were used to determine the kinetics of HLA-A2-specific IgG binding to human FcγRIIIa and FcγRI by biolayer interferometry (BLI) on an Octet (Forte Bio) instrument. Streptavidin (SA) biosensor tips were first loaded with HLA-A2 antigen, followed by HLA-A2 antibody, and finally dipped into FcγR to study the antibody-receptor kinetics. Biosensors were equilibrated with 0.05% Tween-PBS for 60 s, loaded with 0.25 μg/mL biotinylated HLA-A2 antigen (in 0.05% Tween-PBS) until they reached the threshold of 1 nm, and then dipped into 0.05% Tween-PBS to reach baseline for 60 s. […] To improve signal to noise, serum IgG was purified using Melon gel (Thermo) according to the manufacturer's instructions. Polyclonal serum IgG was loaded for 2,400 s. For FcγR dissociation rate (kd) determination, two SAX2 biosensor tips were used, one for the measurement and one as a reference to subtract background signal changes due to dissociation of other components, such as dissociation of HLA-A2-specific IgG from biotinylated HLA. Reference biosensors loaded with IgGs were dipped into buffer (0.05% Tween-PBS) instead of receptors. Finally, the sensors were dipped into 0.05% Tween-PBS for 180 s and 300 s for the dissociation of FcγRIIIa and FcγRI, respectively.

[1] = target: T2, FcγRIIIa V158 (recombinantly expressed, monomeric) (human, UniProt P08637 17-208); assay: BLI (Octet), mAb on HLA-A2 antigen tips, monomeric FcγRIIIa V158; dissociation rate printed as 'KD'; the value is the MEAN over afucosylated IgG1 and IgG3
T2 construct: also called biotinylated FcγRIIIa V158 tetramers
From the text: (§1) Antibody-Receptor dissociation kinetics measurement by Biolayer Interferometry (BLI). […] Streptavidin tips were first coated with biotinylated HLA-A2 antigens. After establishing a signal baseline, the tips were loaded with HLA-A2-specific antibodies, dipped into the buffer for baseline, and then finally dipped into a solution of recombinantly expressed FcγRIIIa V158 monomers. Following receptor association, tips were dipped into a buffer, which allowed receptor dissociation. The dissociation rate of FcγR was defined relatively to a reference tip which was not dipped into the receptor.
(§2) High Precision Streptavidin 2.0 (SAX2) biosensor tips (Sartorius) were used to determine the kinetics of HLA-A2-specific IgG binding to human FcγRIIIa and FcγRI by biolayer interferometry (BLI) on an Octet (Forte Bio) instrument. Streptavidin (SA) biosensor tips were first loaded with HLA-A2 antigen, followed by HLA-A2 antibody, and finally dipped into FcγR to study the antibody-receptor kinetics. Biosensors were equilibrated with 0.05% Tween-PBS for 60 s, loaded with 0.25 μg/mL biotinylated HLA-A2 antigen (in 0.05% Tween-PBS) until they reached the threshold of 1 nm, and then dipped into 0.05% Tween-PBS to reach baseline for 60 s. […]

[2] = target: T2, FcγRIIIa V158 (recombinantly expressed, …); assay: BLI (Octet), mAb on HLA-A2 antigen tips, monomeric FcγRIIIa V158; dissociation rate printed as 'KD'; the value is the MEAN over unmodified IgG1 and IgG3
From the text: as §1, §2

T2 sequence (P08637 17-208 F176V limits assumed): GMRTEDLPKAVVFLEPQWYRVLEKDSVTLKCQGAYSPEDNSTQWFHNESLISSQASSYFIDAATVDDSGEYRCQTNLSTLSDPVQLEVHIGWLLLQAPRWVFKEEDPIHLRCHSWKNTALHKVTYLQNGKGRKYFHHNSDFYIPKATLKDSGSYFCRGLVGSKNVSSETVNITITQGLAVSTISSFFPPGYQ
T1 sequence (P12314 16-288 limits assumed): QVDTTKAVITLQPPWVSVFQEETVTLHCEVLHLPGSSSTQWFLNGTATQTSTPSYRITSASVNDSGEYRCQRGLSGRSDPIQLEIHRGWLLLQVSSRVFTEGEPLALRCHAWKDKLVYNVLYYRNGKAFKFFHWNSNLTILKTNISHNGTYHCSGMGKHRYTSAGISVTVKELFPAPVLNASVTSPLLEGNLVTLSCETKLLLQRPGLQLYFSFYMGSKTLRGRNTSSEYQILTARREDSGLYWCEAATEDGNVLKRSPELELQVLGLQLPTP

| Binder | binding result (FcγRI) | koff [1] [s⁻¹] | koff [2] [s⁻¹] |
| --- | --- | --- | --- |
| B1 | binds | 0.021 | – |
| B2 | binds | 0.021 | – |
| B3 | binds | – | 0.46 |
| B4 | binds | – | 0.46 |
